# Test results: patent publication US5506202A, “Insulin derivatives, a process for the preparation thereof, the use thereof, and a pharmaceutical formulation containing them” (Hoechst Aktiengesellschaft, priority 1988, dated 1996)
# Like-named read-outs stand apart in the source and are kept apart here.
# Assays:
# [1] = isoelectric point (measured by isoelectric focusing); assay type: physicochemical; conditions: insulin derivatives of the invention
# Description: Characteristic of these insulin derivatives is an isoelectric point between 5.8 and 8.5 (measured by isoelectric focusing). The isoelectric point--which is shifted into the neutral range by comparison with the isoelectric point of the unmodified native insulin or proinsulin (at pH = 5.4)--is determined by the additional positive charge(s) located on the surface of the molecule as a result of the basic modification. This makes these insulin derivatives with a basic modification less soluble in the physiological neutral range than is, for example, native insulin or proinsulin, which are normally in dissolved form in the neutral range.
# The isoelectric point of the insulin derivatives of the formula II is between 5.5 and 9.0 (measured by isoelectric focusing).
# [2] = unmodified native insulin or proinsulin, background; cited from earlier work
Substance,isoelectric point [1],isoelectric point [2]
A0-Arg-de-Thr-B30-human insulin,about 6.2,–
"proinsulin: proinsulin, comparison for isoelectric point",–,5.4 pH
"native insulin: unmodified native insulin, comparison for isoelectric point and biological activity",–,5.4 pH
